For data set [1], the system named is MDA-MB-231 cell surface (target molecule unidentified, whole cells) (Homo sapiens?). As to the kind of experiment: flow.
Data set [2] has as its system MDA-MB-231 cell surface (target molecule unidentified, whole cells). In words: flow. To be noted: apparent Kd on whole cells.

Experimental findings from patent US9725713 are described below.

“TCCCGAGTGACGCAGCCCCCGGCGGGATTAATCGGTGGACACGGTGGCTGAC [C23-A30]” showed a Kd in data set [1] (no binding at 250 nM) greater than 1 µM.

For the sequence “TCCCGAGTGACGCAGCCCCCGGCGGGATTGATCGGTGGACACGGTGGCTGAC [C23-G30]”, the Kd in data set [1] (no binding at 250 nM) is greater than 1 µM.

In the case of “TCCCGAGTGACGCAGCCCCCGGCGGGATTNATCGGTGGACACGGTGGCTGAC [C23-P30]”, the Kd in data set [2] (n at 30 is P) was 0.16 µM.

Regarding “TCCCGAGTGACGCAGCCCCCGGNGGGATTAATCGGTGGACACGGTGGCTGAC [Z23-A30]”, the Kd in data set [1] (n at 23 is Z, reduced binding at 250 nM, almost no binding in titration) is greater than 1 µM.

For the sequence “TCCCGAGTGACGCAGCCCCCGGNGGGATTGATCGGTGGACACGGTGGCTGAC [Z23-G30]”, in data set [2] (n at 23 is Z), the Kd was determined as 0.442 µM.

Turning to “TCCCGAGTGACGCAGCCCCCGGTGGGATTAATCGGTGGACACGGTGGCTGAC [T23-A30]”, the Kd in data set [1] (no binding at 250 nM) was greater than 1 µM.

In turn, “TCCCGAGTGACGCAGCCCCCGGTGGGATTGATCGGTGGACACGGTGGCTGAC [T23-G30]” registered a Kd in data set [1] (no binding at 250 nM) greater than 1 µM.

In the case of “TCCCGAGTGACGCAGCCCCCGGTGGGATTNATCGGTGGACACGGTGGCTGAC [T23-P30]”, the Kd in data set [1] (n at 30 is P, no binding at 250 nM) is greater than 1 µM.

As to “TCCCGAGTGACGCAGCCCCCGGZGGGATTPATCGGTGGACACGGTGGCTGAC [ZAP-2012 (Z23-P30)]”, the Kd in data set [2] (AEGIS DNA, Z at 23 (6-amino-5-nitro-3-(2'-deoxyribosyl)-2(1H)-pyridone), P at 30 (2-amino-8-(2'-deoxyribosyl)-imidazo[1,2-a]-1,3,5-triazin-4(8H)one), SEQ 7/16, DPBS, 5 mM MgCl2, glucose, tRNA, BSA, 10% FBS, library background subtracted) was determined as 0.03 µM.
